According to patent US20220324953A1 (JIANGSU HENGRUI MEDICINE, published 2022):
Positions count from the first letter of the chain named.

T1: mouse CTGF (antigen of the Biacore assay) (mouse, UniProt P29268 26-348)
T1 construct: also called mouse CTGF protein
T1 sequence (looked up): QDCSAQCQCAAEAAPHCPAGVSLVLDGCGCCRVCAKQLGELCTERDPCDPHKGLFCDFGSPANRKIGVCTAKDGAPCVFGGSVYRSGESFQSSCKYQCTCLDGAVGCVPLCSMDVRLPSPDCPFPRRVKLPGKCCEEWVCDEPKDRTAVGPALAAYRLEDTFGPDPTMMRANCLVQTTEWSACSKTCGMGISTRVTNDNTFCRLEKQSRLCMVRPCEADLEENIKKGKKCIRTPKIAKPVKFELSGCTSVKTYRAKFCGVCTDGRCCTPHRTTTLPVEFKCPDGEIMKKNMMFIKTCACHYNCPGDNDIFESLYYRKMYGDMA

T2: human CTGF (antigen of the Biacore assays) (human, UniProt P29279 27-349)
T2 construct: also called antigen human CTGF; human CTGF protein
T2 sequence (looked up): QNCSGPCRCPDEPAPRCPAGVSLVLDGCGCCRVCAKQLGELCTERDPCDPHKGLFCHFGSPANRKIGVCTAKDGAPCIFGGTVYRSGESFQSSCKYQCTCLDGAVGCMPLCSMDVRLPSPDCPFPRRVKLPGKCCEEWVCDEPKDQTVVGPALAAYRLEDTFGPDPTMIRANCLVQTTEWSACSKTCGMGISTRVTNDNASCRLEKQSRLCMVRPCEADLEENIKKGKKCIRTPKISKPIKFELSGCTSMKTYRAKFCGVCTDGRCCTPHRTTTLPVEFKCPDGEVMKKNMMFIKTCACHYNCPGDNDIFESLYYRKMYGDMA

T3: human CTGF protein (R&D, Cat No. 9190-CC) (human, UniProt P29279 27-349)
T3 construct: Bought protein; also called CTGF recombinant protein; CTGF (R&D)
T3 sequence: T2 sequence (looked up) with H57D

B1: chimeric antibody Ch95 (antibody, human IgG1, kappa, V domains shown)
VH: EVLLQQSGPVLVKPGPSVKISCKASGFTFTNYDIHWVKQSHGKSLEWIGLVYPYNGGTAYNQKFKDKATLTFDTSSSTAYMELNSLTSEDSAVYYCARWGLIPGTTSYFDVWGTGTTVTVSS
VL: QIVLSQSPPILSASPGEKVTMTCRASSSVSYIHWYQQKPRSSPKPWIYATSNLASGVPARFSGSGSGTSYSLTISRVEAEDAATYYCQQWNSNPWTFGGGTRLEIKR
B2: Hu95-41wk (antibody, human IgG1, kappa, V domains shown)
VH: EVQLVQSGAEVKKPGASVKVSCKASGFTFTNYDIHWVKQAPGQRLEWIGLVYPYNGGTAYNQKFKDKATLTFDTSASTAYMELSSLRSEDTAVYYCARWGLIPGTTSYFDVWGQGTTVTVSS
VL: EIVLTQSPATLSLSPGERATLSCRASSSVSYIHWYQQKPGQAPRPWIYATSNLASGIPARFSGSGSGTDYTLTISRLEPEDFAVYYCQQWNSNPWTFGGGTKVEIKR
B3: Hu95-31wk (antibody, human IgG1, kappa, V domains shown)
VH: B2 VH with I48M, A68V
VL: B2 VL
B4: Hu95-42wk (antibody, human IgG1, kappa, V domains shown)
VH: B2 VH
VL: B2 VL with A42S, I57V, D69S
B5: Hu95-21wk (antibody, human IgG1, kappa, V domains shown)
VH: B2 VH with K38R, K67R
VL: B2 VL
B6: Hu95-51yk (antibody, human IgG1, kappa, V domains shown)
VH: B2 VH with K23R, D33A, I48M, N55T, A68V, L101M, T106N
VL: B2 VL
B7: chimeric antibody Ch147 (antibody, human IgG1, kappa, V domains shown)
VH: EVQLVESGGGLVQPEGSLKLSCAASGFSFNTYAMNWVRQAPGKGLEWVARIRTKSNNYATYYADSVKDRFTISRDDSESMLYLQMNNLKTEDTAMYYCVETGFAYWDQGTLVTVSA
VL: QIVLTQSPAIMSASPGEKVTITCSASSSVSYMHWFQQKPGTSPKLWIYSTSNLASGVPARFSGSGSGTSYSLTISRMEAEDAATYYCQQRSSYPLTFGAGTKLELKR
B8: chimeric antibody Ch164 (antibody, human IgG1, lambda, V domains shown)
VH: QVQLKQSGPGLVQPSQSLSITCTVSGFSLTTFGVHWIRQSPGKGLEWLGVIWRRGGTDYNAAFMSRLSITKDNSRSHVFFKMTSLQTDDSAIYYCARDGGFDYWGQGTTLTVSS
VL: QAVVTQESALTTSPGGTVILTCRSSIGAVTTSNYANWVQEKPDHLFTGLIGGTSNRAPGVPVRFSGSLIGDKAALTITGAQAEDDAMYFCALWYSTHYVFGGGTKVTVLG

Assays:
[1] = target: T1, mouse CTGF (antigen of the Biacore …); assay: Biacore, antibody captured on Protein A, mouse CTGF in flow, 1:1 fit
Excerpt: (§1) A certain amount of each of the test antibodies was affinity-captured with Protein A biosensor chip (Cat. # 29127556, GE), and then a certain concentration of human or mouse CTGF was allowed to flow through the surface of the chip. The reaction signals were detected in real time with Biacore instrument to generate a binding and dissociation curve. After the dissociation was completed in each cycle, the biosensor chip was washed and regenerated with Glycine-HCl regeneration solution pH 1.5 (Cat. # BR-1003-54, GE). The running buffer for the assay was 1×HBS-EP buffer solution (Cat. # BR-1001-88, GE).

[2] = target: T2, human CTGF (antigen of the Biacore …); assay: Biacore, antibody captured on Protein A, CTGF in flow, 1:1 fit
Excerpt: as §1

[3] = target: T3, human CTGF protein (R&D, Cat No. …); assay: ELISA, plate coated with CTGF (R&D 9190-CC)
Method: The binding activity of anti-human CTGF antibody to human CTGF protein was tested by ELISA assay and Biacore. A 96-well microtiter plate was directly coated with the CTGF recombinant protein. The signal strength upon the addition of the antibody was used to determine the binding activity of the antibody to CTGF. The specific experimental procedures were as follows:
The CTGF protein (R&D, Cat No. 9190-CC) was diluted with PBS, pH 7.4 (Shanghai Yuanpei, Cat No. B320) buffer to a concentration of 0.2 μg/ml, 50 μl/well of which was added into the 96-well microtiter plate (Corning, Cat No. CLS3590-100EA), and incubated in an incubator at 37° C. for 2 hours or at 4° C. overnight (16-18 hours). The liquid was removed, 250 μl/ well blocking solution (5% skim milk (BD skim milk, Cat No.232100) diluted in PBS) was added, and incubated in an incubator at 37° C. for 3 hours or at 4° C. overnight (16-18 hours) for blocking. After the blocking was finished, the blocking solution was removed, the plate was washed for 5 times with PBST buffer (PBS containing 0.1% Tween-20, pH 7.4), 50 μl/well of various concentrations of each of the test antibodies (antibodies purified from hybridoma or humanized antibodies) diluted with sample dilution solution were added, and incubated in an incubator at 37° C. for 1 hours. After the incubation was finished, the plate was washed for 3 times with PBST, 50 μl/well of HRP-labeled goat anti-mouse secondary antibody (Jackson Immuno Research, Cat No. 115-035-003) or goat anti-human secondary antibody (Jackson Immuno Research, Cat No. 109-035-003) diluted with sample dilution solution was added, and incubated at 37° C. for 1 hour. The plate was washed for 3 times with PBST, 50 μl/well of TMB chromogenic substrate (KPL, Cat No. 52-00-03) was added, incubated at room temperature for 5-10min, and 50 μl/well of 1 M H₂SO₄ was added to stop the reaction. The absorbance value was read by a microplate reader (Molecular Devices, VERSA max) at a wavelength of 450 nm, and the data was analyzed with GraphPad Prism 5. The binding of CTGF antibody to human CTGF protein was calculated as EC50 value.

[4] = target: T4, Cynomolgus CTGF-Fc (fusion protein of cynomolgus CTGF coding region with Fc) (cynomolgus); assay: ELISA, cyno-CTGF-Fc captured by anti-mFc
T4 construct: also called cyno-CTGF-mFc protein; cyno-CTGF protein with Fc tag
Method: The binding activity of anti-monkey CTGF antibody to monkey CTGF protein was tested by ELISA assay. A 96-well microtiter plate was directly coated with anti-mFc protein, and then the cyno-CTGF protein with Fc tag was bound to the plate, and then the antibody was added. The signal strength upon the addition of the antibody was used to determine the binding activity of the antibody to cyno-CTGF. The specific experimental procedures were as follows:
The anti-mFc Protein (Sigma, Cat No. M4280) was diluted with PBS, pH 7.4 (Shanghai Yuanpei, Cat No. B320) buffer to a concentration of 2 μg/ml, which was added into the 96-well microtiter plate (Corning, Cat No. CLS3590-100EA) at 50 μl/well, and incubated in an incubator at 37° C. for 2 hours. The liquid was removed, 250 μl/well blocking solution (5% skim milk (BD skim milk, Cat No.232100) diluted in PBS) was added, and incubated in an incubator at 37° C. for 3 hours or at 4° C. overnight (16-18 hours) for blocking. After the blocking was finished, the blocking solution was removed, the plate was washed for 3 times with PBST buffer (PBS containing 0.1% Tween-20, pH 7.4), 50 μl of 1 μg/ml cyno-CTGF-mFc protein was added into each well, incubated in an incubator at 37° C. for 1 hour, and then the plate was washed for 3 times with PBST buffer (PBS containing 0.1% Tween-20, pH 7.4). 50 μl/well of various concentrations of each of the test antibodies (antibodies purified from hybridoma or humanized antibodies) diluted with sample dilution solution were added, and incubated in an incubator at 37° C. for 1 hours. After the incubation was finished, the plate was washed for 3 times with PBST, 50 μl/well of HRP-labeled goat anti-mouse secondary antibody (Jackson Immuno Research, Cat No. 115-035-003) or goat anti-human secondary antibody (Jackson Immuno Research, Cat No. 109-035-003) diluted with sample dilution solution was added, and incubated at 37° C. for 1 hour. The plate was washed for 5 times with PBST, 50 μl/well of TMB chromogenic substrate (KPL, Cat No. 52-00-03) was added, incubated at room temperature for 5-10 min, and 50 μl/well of 1 M H₂SO₄ was added to stop the reaction. The absorbance value was read by a microplate reader (Molecular Devices, VERSA max) at a wavelength of 450 nm, and the data was analyzed with GraphPad Prism 5. The binding of CTGF antibody to cyno CTGF protein was calculated as EC50 value.

T4 sequence (chain, as listed by the source limits assumed): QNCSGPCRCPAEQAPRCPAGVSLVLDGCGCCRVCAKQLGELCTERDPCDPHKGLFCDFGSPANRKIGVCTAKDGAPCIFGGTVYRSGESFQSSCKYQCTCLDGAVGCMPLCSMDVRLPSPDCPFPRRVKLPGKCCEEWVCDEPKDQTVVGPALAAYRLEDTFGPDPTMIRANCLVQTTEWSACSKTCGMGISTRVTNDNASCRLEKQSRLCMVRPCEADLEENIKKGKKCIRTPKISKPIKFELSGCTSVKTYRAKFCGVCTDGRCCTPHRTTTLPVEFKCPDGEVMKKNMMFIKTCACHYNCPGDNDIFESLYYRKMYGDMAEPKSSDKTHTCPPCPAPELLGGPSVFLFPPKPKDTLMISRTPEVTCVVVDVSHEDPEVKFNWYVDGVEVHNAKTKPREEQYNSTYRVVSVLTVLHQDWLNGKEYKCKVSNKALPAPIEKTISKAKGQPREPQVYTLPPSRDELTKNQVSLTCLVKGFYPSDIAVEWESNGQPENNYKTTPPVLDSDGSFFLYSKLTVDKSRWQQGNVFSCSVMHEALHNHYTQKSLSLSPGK

Binder | Kd [1] [nM] | koff [1] [s⁻¹] | kon [1] [M⁻¹ s⁻¹] | Kd [2] [nM] | koff [2] [s⁻¹] | kon [2] [M⁻¹ s⁻¹] | EC50 [3] [nM] | EC50 [4] [nM]
B1 | 1.71 | 0.0235 | 1.38e+07 | 3.85 | 0.0302 | 7.85e+06 | – | –
B2 | 2.44 | 0.0339 | 1.39e+07 | 5.29 | 0.0408 | 7.7e+06 | – | –
B3 | 2.87 | 0.0225 | 7.84e+06 | 5.84 | 0.0326 | 5.59e+06 | – | –
B4 | 2.42 | 0.0137 | 5.66e+06 | 5.74 | 0.0191 | 3.32e+06 | – | –
B5 | 3.99 | 0.0211 | 5.29e+06 | 7.39 | 0.0303 | 4.09e+06 | – | –
B6 | 0.0202 | 0.000516 | 2.56e+07 | 0.0358 | 0.00102 | 2.84e+07 | 0.08 | 0.059
B7 | 1.23 | 0.0384 | 3.12e+07 | 0.466 | 0.00693 | 1.49e+07 | – | –
B8 | 0.0822 | 0.0101 | 1.23e+08 | 0.133 | 0.00883 | 6.62e+07 | – | –
